Data taken from PMC7814660 (Nature, 2020).
Numbering of substitutions follows the chain as printed. Names and notes keep the numbering of the source.

Columns and labels:
[1] = whole-cell patch clamp, CBX-sensitive current density, +80 mV; details: glycan lost; control: wild type
[2] = cryo-EM structure superimposition of subunits; details: glycan lost; control: wild type
cryo-EM structure [3] = biological target: the molecule itself; experiment: cryo-EM structure
cryo-EM structure [4] = biological target: the molecule itself; experiment: cryo-EM structure; remark: listed apart in the source

B1: Pannexin 1 (hsPANX1): N255A (protein)
parent chain: MAIAQLATEYVFSDFLLKEPTEPKFKGLRLELAVDKMVTCIAVGLPLLLISLAFAQEISIGTQISCFSPSSFSWRQAAFVDSYCWAAVQQKNSLQSESGNLPLWLHKFFPYILLLFAILLYLPPLFWRFAAAPHICSDLKFIMEELDKVYNRAIKAAKSARDLDMRDGACSVPGVTENLGQSLWEVSESHFKYPIVEQYLKTKKNSNNLIIKYISCRLLTLIIILLACIYLGYYFSLSSLSDEFVCSIKSGILRNDSTVPDQFQCKLIAVGIFQLLSVINLVVYVLLAPVVVYTLFVPFRQKTDVLKVYEILPTFDVLHFKSEGYNDLSLYNLFLEENISEVKSYKCLKVLENIKSSGQGIDPMLLLTNLGMIKMDVVDGKTPMSAEMREEQGNQTAELQGMNIDSETKANNGEKNARQRLLDSSC
other: channel current [1]: changes
structure_or_conformation [2]: changes

B2: wild type human Pannexin 1 (wt-hsPANX1) (natural protein, UniProt Q96RD7 1-426, looked up)
chain: B1 parent chain
modifications: N-glycosylated at N255 (N-acetylglucosamine modelled)
stoichiometry N (cryo-EM structure [3]): 7

B3: glycosylation-deficient mutant N255A of human Pannexin 1 (N255A-hsPANX1) (natural protein, UniProt Q96RD7 1-426, looked up)
chain: B1 parent chain with N255A
ratio of gap junctions to hemichannels (cryo-EM structure [4]): ~0.2 gap junctions : hemichannels

B4: caspase 7-cleaved human Pannexin 1 (ΔCTT-hsPANX1) (domain or fragment, UniProt Q96RD7 1-379, looked up)
chain: MAIAQLATEYVFSDFLLKEPTEPKFKGLRLELAVDKMVTCIAVGLPLLLISLAFAQEISIGTQISCFSPSSFSWRQAAFVDSYCWAAVQQKNSLQSESGNLPLWLHKFFPYILLLFAILLYLPPLFWRFAAAPHICSDLKFIMEELDKVYNRAIKAAKSARDLDMRDGACSVPGVTENLGQSLWEVSESHFKYPIVEQYLKTKKNSNNLIIKYISCRLLTLIIILLACIYLGYYFSLSSLSDEFVCSIKSGILRNDSTVPDQFQCKLIAVGIFQLLSVINLVVYVLLAPVVVYTLFVPFRQKTDVLKVYEILPTFDVLHFKSEGYNDLSLYNLFLEENISEVKSYKCLKVLENIKSSGQGIDPMLLLTNLGMIKMDVVD
binding result (cryo-EM structure [3]): binds
